Assay results reported in patent JP2023032631A (dated 2023).
Where a chain is given by its changes, count along the chain named.

B1: 抗SARS-CoV-2 RBD VHH抗体 A15 (VHH, not shown: small tags and cut ends)
VHH: QVQLVESGGALVQPGGSLRLSCAASGFPVNRNTMHWYRQAPGKEREGVAGISSRGDWTYYEDSVKGRFTISRDDARNTVYLQMSSLKPEDTAVYYCAAVGVLSVSAFGWLYWGQGTQVTVGG
notes: also called A15
B2: 抗SARS-CoV-2 RBD VHH抗体 B16 (VHH, not shown: small tags and cut ends)
VHH: QVQLVESGGALVQPGGSLRLSCAASGFPVNHNAVHWFRQAPGKEREGVAGISHLVHRTYYEDSVKGRFTISRDDARNTVYLQMNSLKPEDTAVYYCAAYLWLLGGVYWGQGTQVTVGG
notes: also called B16
B3: 抗SARS-CoV-2 RBD VHH抗体 B02 (VHH, not shown: small tags and cut ends)
VHH: QVQLVESGGALVQPGGSLRLSCAASGFPVNRNTMHWFRQAPGKEREGVAGISSRGDWTYYEDSVKGRFTISRDDARNTVYLQMNSLKPEDTAVYYCAALLWNYGGVCWGQGTQVTVGG
notes: also called B02
B4: 抗SARS-CoV-2 RBD VHH抗体 B04 (VHH, not shown: small tags and cut ends)
VHH: B3 VHH with N102H, C107Y, V116A
notes: also called B04
B5: 抗SARS-CoV-2 RBD VHH抗体 B13 (VHH, not shown: small tags and cut ends)
VHH: B3 VHH with R31H, N32H, H35L, S53F, D56N, L99H, N102L, Y103L, C107Y
notes: also called B13
B6: 抗SARS-CoV-2 RBD VHH抗体 A02 (VHH, not shown: small tags and cut ends)
VHH: B3 VHH with L99Y, N102L, Y103L, C107Y
notes: also called A02
B7: 抗SARS-CoV-2 RBD VHH抗体 A03 (VHH, not shown: small tags and cut ends)
VHH: QVQLVESGGALVQPGGSLRLSCAASGFPVNHNAMHWFRQAPGKERESVAGISHVVYRTYYEDSVKGRFTISRDDARNTVYLQMNSLKPEDTAVYYCAAVALTDLRLYWGQGTQVTVGG
notes: also called A03

Each binder was assayed against T1, SARS-CoV-2 RBDタンパク質(Recombinant SARS-CoV-2, S1 Subunit Protein (RBD)、RayBiotech Life, Inc.) (SARS-CoV-2, UniProt P0DTC2 319-541) (assay: ELISA on coated RBD, legend of Figure 2, n=4).

Q: Does B1 bind?
A: binds

Q: Does B2 bind?
A: binds

Q: Does B3 bind?
A: binds

Q: Does B4 bind?
A: binds

Q: Does B5 bind?
A: binds

The binders below were run against T1, SARS-CoV-2 RBDタンパク質(Recombinant … (assay: ELISA, RBD coated 50 ng/well, VHH 50 ng/well, anti-FLAG detection, A450, n=4).

Q: Does B6 bind?
A: binds

Q: Does B7 bind?
A: binds
